Experimental data reported in patent US20210253725A1 (BIONTECH, published 2021).
Positions count from the first letter of the chain named.

T1: CD27 expressed on the cell surface of HT1080_CD27 cells (human, UniProt P26842 20-260)
T1 sequence (looked up): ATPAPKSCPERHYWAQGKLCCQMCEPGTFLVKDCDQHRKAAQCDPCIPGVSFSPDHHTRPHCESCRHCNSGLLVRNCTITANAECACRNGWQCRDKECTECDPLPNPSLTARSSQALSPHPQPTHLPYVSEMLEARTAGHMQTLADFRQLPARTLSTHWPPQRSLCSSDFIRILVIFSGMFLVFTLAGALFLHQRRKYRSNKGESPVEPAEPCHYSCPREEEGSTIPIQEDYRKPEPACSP

B1: P018.S.01.A.F05 (antibody, V domains shown)
VH: QEQLEESGGDLVKPEGSLTLTCTASGFSFSSSYWICWVRQAPGKGLEWIGCIITGRGNTYYANWAKGRFTISKTSSTTVTLQMTSLTAADTAIYSCARGPGGADPVNLWGPGTLVTVSS
VL: DVVMTQTPASVSEPVGGTVTIKCQASQSIYSNLAWYQQKPGQPPKLLIYRASTLTSGVPSRFKGSGSGTQFTLTISDLESADAATYYCQCTYDGSSYVPNAFGGGTEVVVK
B2: P018.S.09.A.D05 (antibody, V domains shown)
VH: QSLEESGGRLVTPGGSLTLTCTVSGIDLSSYAMDWVRQAPGKGLEWIGVIGAGGSTYYASWANGRFTISKTSTTVDLKISSPTTEDTATYFCARDIGGDYSSRYYFSLWGPGTLVTVSS
VL: DIVMTQTPASVEAAVGGTVTIKCQASQSTSTALAWYQQKPGQRPKLLIYDSSKLASGVPSRFSGSGSGTEFTLTISGVQSDDAASYYCQQGYNINNVAFGGGTEVVVK
B3: P018.S.09.A.E05 (antibody, V domains shown)
VH: QSLEESGGRLVTPGTPLTLTCTVSGIDLSRYDMSWVRQAPGKGLEWIGFIGASGSTYYASWVKGRFTISKTSTTVDLKITSPTTEDTATYFCAREETDSRGYYYSLWGPGTPVTVSS
VL: ALVMTQTPASVEAAVGGTVTINCQASQSISDLLGWYQQKPGQPPKLLIYDASDLASGVPSRFSGSGSGTEFTLTISGVQSDDAATYYCQQGYSINNVDNAFGGGTEVVVK
B4: P018.S.10.A.H01 (antibody, V domains shown)
VH: QEQLEESGGDLVKPGASLTLTCTASGFSFSSDYDMCWVSQAPGKGLEWIACIIGGSSDSTWYASWAKGRFTISKTSSTTVTLQVTGLTAADTATYFCARNVGFSYYDLWGPGTLVTVSS
VL: AQVLTQTPSPVSAAVGGTVTINCQASQSLYNNKNLAWYQQKPGQPPKLLIYYASTLASGVSSRFKGSGSGTQFTLTISGVQSDDAATYYCQGEFSCSSGDCFAFGGGTEVVVK
B5: P018.S.08.A.G02 (antibody, V domains shown)
VH: QSVEESGGRLVTPGTPLTLTCTVSGFSLSTYAMSWVRQAPGKGLEWIGMNTRSGIIYYASWAKGRFTISKTSTTVHLKITSPTTEDTATYFCARDLYADVSGYYLGLWGPGTLVTVSS
VL: B4 VL with P10S, G79D, V80L, Q81E, S95I, G99A, F102V, A103V, E109A
B6: P018.S.09.A.C03 (antibody, V domains shown)
VH: QSVEESGGRLVTPGTPLTLTCTVSGFSLSSYGMIWVRQAPGKGLEWIGWISSNDNKYYARWAKGRFTISKTSTTVDLKMTSLTTEDTATYFCVRNGVYNTGNYFDLWGQGTLVTVSS
VL: B4 VL with P10S, L48F, Y52T, T55S, G79D, S95D, S97D, G99D
B7: P018.S.10.A.C05 (antibody, V domains shown)
VH: QSVEETGGRLVTPGTPLTLTCAASGVSLSGYYAMSWVRQAPGKGLEWIGYLDATGSTYYASWVKGRFIISRPSTTVDLQITSPTIEDTATYFCARGSYDGVGYNWGLWGQGTLVTVSS
VL: DIVMTQTPASVSEPVGGTVTIKCQASESIYNGLAWYQQKPGQPPKRLIYGASTLTSGVPSRFKGSGSGTEFTLTISDLESDDAATYYCQSNYGSGSRSNYIFGGGTEVVVK
B8: P018.S.10.A.E01 (antibody, V domains shown)
VH: QEQLVESGGGLVQPEGSLTLTCTATGIDFSTNYRSCWVRQAPGKGLEWIACIDTDDSDSTYYASWAKGRFTISKTSSTTVTLQMTSLTAADTATYFCTRAYTTSDYAWSFYLWGPGTLVTVSS
VL: DLVMTQTPASVEAAVGGTVTIKCQTSQSISKFLNWYQQTPGQPPKLLIYRASTLESGVPSRFEGSGSGTEFTLTISDLESADAATYYCQCTYGGTSGSVWAFGGGTEVVVK
B9: P018.S.01.A.B04 (antibody, V domains shown)
VH: QEQLEESGGRLVTPGGTLTLTCTASGFSLSSYDMSWVRQAPGKGLEWIGYIWSDGNTDYASWAAGRFTASRASTTVDLKMTSLTTEDTATYFCARGYTGFFLWGPGTLVTVSS
VL: DVVMTQTPSSVSAAVGGTVTIKCQASQSIGSSYLSWYQQKPGQPPKLLIYKTSTLASGVPSRFKGSGSGTEFTLTISDLESDDAATYYCQCTYYGGSWRVAFGGGTEVVVK
B10: P018.S.01.A.D04 (antibody, V domains shown)
VH: B9 VH with S31N
VL: B9 VL with A13T, G17D
B11: P018.S.02.A.G03 (antibody, V domains shown)
VH: QSVEESGGRLVTPGTPLTLTCTVSGFSLSSYVMSWVRQAPGKGLEWIGYIDYGGTAYYASWAKGRFTISKTSTTVELKITSPTIEDTATYFCARGGYGGYILVTGLWGPGTLVTVSS
VL: DIVMTQTPASVSEPVGGTVTIKCQASQTIISYLSWYQQKPGQPPKLLIYGASTLASGVPSRFKGSGSVTEYTLTISDLESADAATYYCQTYYGGGPFGNGFGGGTEVVVK
B12: P018.S.04.A.A05 (antibody, V domains shown)
VH: QSLEESGGRLVTPGTPLTLTCTASGFTISSYEMGWVRQAPGEGLEYIGWIASGGSTFYASWAKGRFTISRTSTTVDLTITDLRPSDTGTYFCARGYVEFKLWGPGTLVTVSS
VL: DIVMTQTPASVSESVGGTVTIKCQASQSIGSYLSWYQQKPGQPPKVLIYRASTLESGVPSRFEGSGSGTQFTLTISDLESADAATYYCQGYHSTSGYVAFGGGTELVVK
B13: P018.S.09.A.H03 (antibody, V domains shown)
VH: QSLEESGGRLVTPDESLTLTCTVSGFSLSSNAMIWVRQAPGKGLEWIGIIDTGGSAYYASWAKGRFTISKTSTTVDLKITSPTTEDTATYFCARDRYTDSSGYNLWGQGTLVTVSS
VL: DIVMTQTPASVEAAVGGTVTIKCQASQSIGASLAWYKQKPGQPPKLLIYSASWLASGVPSRFKGSGSGTEFTLTISDLASADAATYYCQSYYYRSSSGYGYAFGGGTEVVVK
B14: P018.S.07.A.C04 (antibody, V domains shown)
VH: QEQLVESGGGLVQPEGSLTLTCTASGFSFSSRFWICWVRQAPGKGLEWIACIYGGSTSATYDASWAKGRFTISKTSSTTVTLQMTSLTAADTATYFCTRLPTYDAYVFNLWGPGTLVTVSS
VL: AIVMTQTPSSKSVPVGATATINCQASESVFSNNYLSWYQQKPGRSPKLLIYEASKLASGVPSRFSGSGSGTQFTLTISDVVSDDAATYYCGGYKSNNVDGYAFGGGTEVVVK
B15: P018.S.04.A.F04 (antibody, V domains shown)
VH: QSVEESGGRLVTPGTPLTLTCTVSGFSLSNYAMSWVRQAPGKGLEWIGIIYASGTTYYARWAKGRFTISRTSTTVDLKISSPTTEDTATYFCAREYDSYDYAYGSSIYAFDPWGPGTLVTVSS
VL: AYDMTQTPSSVSAAVGGTVTIKCQASESIYSNLAWYQQKPGQRPKLLIYRASTLASGVSSRFKGSGSGTQFTLSISGVESADAATYYCQQGYSSSNVDNVFGGGTEVVVK
B16: P018.S.06.A.A02 (antibody, V domains shown)
VH: QEQLVESGGGLVQPEGSLTLTCTSSGFSLNSNYYISWVRQAPGKGLEWIACIDAGSGSTWYASWVKGRFTISKTSSTTVTLQMTSLTAADTATYFCARDDIGTSYEYYFGLWGPGTLVTVSS
VL: DVVLTQTPASVSEPVGGTVTIKCQASQTISSYLAWYQQKSGQPPKLLIYSASTLASGVSSRFKGSGSGTEYTLTISDLESADAATYYCQTYYGSDSYVFGGGTEVVVK
B17: P018.S.01.A.H02 (antibody, V domains shown)
VH: QSVEESGGRLVTPGTPLTLTCTASGFSLSSYHMQWVRQAPGKGLEWIGIIYAGSGNTWYASWAKGRFTISKTSTTVDLKITSPTTEDTAAYFCARQPGGDASDTQLDLWGQGTLVTVSS
VL: AAVLTQTASPVSAAVGGTVTINCQSSQSVFDHNQLSWFQHKPGQSPKLLIYRASTLASGVPSRFKGSGSGTQFTLTISDVQSDDAATYYCLGGYSSSSDTVFGGGTEVVVK
B18: P018.S.07.A.G02 (antibody, V domains shown)
VH: QSVEESGGRLVTPGTPLTLTCTVSGFSLSSYDMSWVRQAPGKGLEWIGWITTDGGTDYASWAKGRFTVSKASTTVDLKITSPTTEDTATYFCARGYASFNLWGQGTLVTVSS
VL: AQVLTQTPSSVSAAVGGTVTINCQSSQSVLSNSYLAWYQQKPGQPPKLLIYAASSLASGVPSRFKGSGSGTQFTLTISDLESDDAATYYCQGTDYSGGWYVAFGGGTEVVVK
B19: P018.S.01.A.H06 (antibody, V domains shown)
VH: QEQLKESGGRLVKPDETLTITCTASGFSLSRYDMSWVRQAPGKGLEWIGSIWSDGDTDYANWAKGRFTISKTSTTVDLKITSPTTEDTATYFCARGYTAWSLWGPGTLVTVSS
VL: ALVMTQTPSPVSAAVGGTVTISCQSSESVVGNNALSWFQQKPGQPPKLLNYQASTLASGVSSRFSGSGSGTQFTLTISGVQSDDAATYYCQGTYYSSGWYFAFGGGTEVVVK
B20: P018.S.03.A.A02 (antibody, V domains shown)
VH: QSVEESGGRLVTPGTPLTLTCTVSGFSLSSYDMTWVRQAPGEGLEWIGYINTDTTTYYASWAKGRFTISRTSTTVDLEITSPTTEDTATYFCARGNDPIYIDLWGQGTLVTVSS
VL: AAVLTQTPSPVSAAVGGTVSISCQSSKSVINNNWLGWYQQKPGQPPKLLISYASTLASGVPSRFSGSGSGTQFTLTISDVQSDDAATYYCAGAYSPDSENAFGGGTEVVLK

These binders were tested against T1, CD27 expressed on the cell surface of … (assay: cell-based or functional assay).

Binder | EC 50 (IL-8 release, cross-linked) [mg/L]
B1 | 1.32
B2 | 0.561
B3 | 0.502
B4 | 0.431
B5 | 1.94
B6 | 1.02
B7 | 0.34
B8 | 0.722
B9 | 0.856
B10 | 1.3
B11 | 0.526
B12 | 0.408
B13 | 0.387
B14 | 0.801
B15 | 1.44
B16 | 0.575
B17 | 1.11
B18 | 0.43
B19 | 2.35
B20 | 0.835
